In patent publication US20220273711A1 (published 2022):

Biological target: biotinylated Bcl2 (wild-type non-optimized Bcl2 with C-terminal Avi and 6xHis-tags) (UniProt P10415 1-207, enzymatically biotinylated using BirA (Avi tag))
Assay: BLI; midpoint; Cage plus Key_EGFR, co-localization-independent

Sequence of biotinylated Bcl2 (wild-type non-optimized Bcl2 with C-terminal Avi and 6xHis-tags) (P10415 1-207): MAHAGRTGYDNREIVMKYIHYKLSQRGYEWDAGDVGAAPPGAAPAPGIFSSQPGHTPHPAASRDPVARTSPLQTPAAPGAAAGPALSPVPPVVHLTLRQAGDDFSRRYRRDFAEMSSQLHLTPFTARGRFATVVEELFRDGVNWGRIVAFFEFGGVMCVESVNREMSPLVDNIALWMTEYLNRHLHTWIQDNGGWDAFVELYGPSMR

Row | Binder | EC50 [nM]
1 | Her2_Cage_L209A (Tuned Cage targeted to Her2 by DARPin (L209A)) (designed binder) MGSHHHHHHGSGSENLYFQGSGGSDLGKKLLEAARAGQDDEVRILMANGADVNAKDEYGLTPLYLATAHGHLEIVEVLLKNGADVNAVDAIGFTPLHLAAFIGHLEIAEVLLKHGADVNAQDKFGKTAFDISIGNGNEDLAEILQKLNSGSGSGKPGQASGSELARKLLEASTKLQRLNIRLAEALLEAIARLQELNLELVYLAVELTDPKRIRDEIKEVKDKSKEIIRRAEKEIDDAAKESEKILEEAREAISGSGSELAKLLLKAIAETQDLNLRAAKAFLEAAAKLQELNIRAVELLVKLTDPATIREALEHAKRRSKEIIDEAERAIRAAKRESERIIEEARRLIEKGSGSGSELARELLRAHAQAQRLNLELLRELLRALAQLQELNLDLLRLASELTDEIWIAQELRRIGDEFNAYYADAERLIREAAAASEKISREAERLIR | 23
2 | Her2_Cage_I287A (Tuned Cage targeted to Her2 by DARPin (I287A)) (designed binder) MGSHHHHHHGSGSENLYFQGSGGSDLGKKLLEAARAGQDDEVRILMANGADVNAKDEYGLTPLYLATAHGHLEIVEVLLKNGADVNAVDAIGFTPLHLAAFIGHLEIAEVLLKHGADVNAQDKFGKTAFDISIGNGNEDLAEILQKLNSGSGSGKPGQASGSELARKLLEASTKLQRLNIRLAEALLEAIARLQELNLELVYLAVELTDPKRIRDEIKEVKDKSKEIIRRAEKEIDDAAKESEKILEEAREAISGSGSELAKLLLKAIAETQDLNLRAAKAFLEAAAKLQELNIRAVELLVKLTDPATIREALEHAKRRSKEIIDEAERAIRAAKRESERIIEEARRLIEKGSGSGSELARELLRAHAQLQRLNLELLRELLRALAQLQELNLDLLRLASELTDEIWIAQELRRIGDEFNAYYADAERLIREAAAASEKISREAERLAR | 12
3 | Her2_Cage (Original Cage targeted to Her2 by DARPin) (designed binder) MGSHHHHHHGSGSENLYFQGSGGSDLGKKLLEAARAGQDDEVRILMANGADVNAKDEYGLTPLYLATAHGHLEIVEVLLKNGADVNAVDAIGFTPLHLAAFIGHLEIAEVLLKHGADVNAQDKFGKTAFDISIGNGNEDLAEILQKLNSGSGSGKPGQASGSELARKLLEASTKLQRLNIRLAEALLEAIARLQELNLELVYLAVELTDPKRIRDEIKEVKDKSKEIIRRAEKEIDDAAKESEKILEEAREAISGSGSELAKLLLKAIAETQDLNLRAAKAFLEAAAKLQELNIRAVELLVKLTDPATIREALEHAKRRSKEIIDEAERAIRAAKRESERIIEEARRLIEKGSGSGSELARELLRAHAQLQRLNLELLRELLRALAQLQELNLDLLRLASELTDEIWIAQELRRIGDEFNAYYADAERLIREAAAASEKISREAERLIR | 63
4 | Her2_Cage_I287S (Tuned Cage targeted to Her2 by DARPin (I287S)) (designed binder) MGSHHHHHHGSGSENLYFQGSGGSDLGKKLLEAARAGQDDEVRILMANGADVNAKDEYGLTPLYLATAHGHLEIVEVLLKNGADVNAVDAIGFTPLHLAAFIGHLEIAEVLLKHGADVNAQDKFGKTAFDISIGNGNEDLAEILQKLNSGSGSGKPGQASGSELARKLLEASTKLQRLNIRLAEALLEAIARLQELNLELVYLAVELTDPKRIRDEIKEVKDKSKEIIRRAEKEIDDAAKESEKILEEAREAISGSGSELAKLLLKAIAETQDLNLRAAKAFLEAAAKLQELNIRAVELLVKLTDPATIREALEHAKRRSKEIIDEAERAIRAAKRESERIIEEARRLIEKGSGSGSELARELLRAHAQLQRLNLELLRELLRALAQLQELNLDLLRLASELTDEIWIAQELRRIGDEFNAYYADAERLIREAAAASEKISREAERLSR | 8.7
5 | Her2_Cage_I269S (Tuned Cage targeted to Her2 by DARPin (I269S)) (designed binder) MGSHHHHHHGSGSENLYFQGSGGSDLGKKLLEAARAGQDDEVRILMANGADVNAKDEYGLTPLYLATAHGHLEIVEVLLKNGADVNAVDAIGFTPLHLAAFIGHLEIAEVLLKHGADVNAQDKFGKTAFDISIGNGNEDLAEILQKLNSGSGSGKPGQASGSELARKLLEASTKLQRLNIRLAEALLEAIARLQELNLELVYLAVELTDPKRIRDEIKEVKDKSKEIIRRAEKEIDDAAKESEKILEEAREAISGSGSELAKLLLKAIAETQDLNLRAAKAFLEAAAKLQELNIRAVELLVKLTDPATIREALEHAKRRSKEIIDEAERAIRAAKRESERIIEEARRLIEKGSGSGSELARELLRAHAQLQRLNLELLRELLRALAQLQELNLDLLRLASELTDEIWIAQELRRIGDEFNAYYADAERLSREAAAASEKISREAERLIR | 8.4
